Measured values: patent US20160053011A1 (ABCLON, published 2016)
Where a chain is given by its changes, count along the chain named.

B1: hz1E11 CDR-L3 Q89A (antibody, V domains shown)
VH: EVQLVESGGGLVQPGGSLRLSCAASGFTFSSYTMSWVRQAPGKGLEWVAYISNGGGSTYYPDTVKGRFTISRDNAKNSLYLQMNSLRAEDTAVYYCARHLGGTASFDYWGQGTLVTVSS
VL: DIQMTQSPSSLSASVGDRVTITCLASQTIGTWLAWYQQKPGKAPKLLIYVATSLADGVPSRFSGSGSGTDFTLTISSLQPEDFATYYCAQLYSTPWTFGQGTKVEIK
notes: Alanine scanning variant, expressed in bacteria, periplasmic extract
B2: hz1E11 CDR-L3 Y92A (antibody, V domains shown)
VH: B1 VH
VL: B1 VL with A89Q, Y92A
notes: as for B1
B3: hz1E11 CDR-H3 L96A (antibody, name in Kabat numbering, V domains shown)
VH: B1 VH with L100A
VL: B1 VL with A89Q
notes: as for B1
B4: hz1E11 CDR-H3 H95A (antibody, name in Kabat numbering, V domains shown)
VH: B1 VH with H99A
VL: B1 VL with A89Q
notes: as for B1
B5: hz1E11 CDR-L3 Q90A (antibody, V domains shown)
VH: B1 VH
VL: B1 VL with A89Q, Q90A
notes: as for B1
B6: hz1E11 CDR-L3 T94A (antibody, V domains shown)
VH: B1 VH
VL: B1 VL with A89Q, T94A
notes: as for B1
B7: hz1E11 CDR-H3 T99A (antibody, name in Kabat numbering, V domains shown)
VH: B1 VH with T103A
VL: B1 VL with A89Q
notes: as for B1
B8: hz1E11 CDR-H3 S100aA (antibody, name in Kabat numbering, V domains shown)
VH: B1 VH with S105A
VL: B1 VL with A89Q
notes: as for B1
B9: hz1E11 CDR-L3 S93A (antibody, V domains shown)
VH: B1 VH
VL: B1 VL with A89Q, S93A
notes: as for B1
B10: hz1E11 CDR-L3 L91A (antibody, V domains shown)
VH: B1 VH
VL: B1 VL with A89Q, L91A
notes: as for B1
B11: hz1E11-133 (IgG) (antibody, V domains shown)
VH: B1 VH
VL: B1 VL with A89Q, L91N, Y92A, S93Y, T94A
notes: heavy chain variable region the same as hz1E11
B12: hz1E11-3 (IgG) (antibody, V domains shown)
VH: B1 VH
VL: B1 VL with A89D, L91M
notes: as for B11
B13: hz1E11-154 (IgG) (antibody, V domains shown)
VH: B1 VH
VL: B1 VL with A89Q, L91T, Y92A, S93F, T94S
notes: as for B11
B14: M1-L-A1-3-1C3 (hz1E11-3), periplasmic extract (antibody, V domains shown)
VH: B1 VH
VL: B1 VL with A89D, L91M
notes: Library clone expressed in bacteria with IPTG, tested as periplasmic extract; LCDR3 DQMYSTPWT
B15: M3-L-A1-3-2C2 (antibody, V domains shown)
VH: B1 VH
VL: B1 VL with A89Q, Y92G, S93F, T94I
notes: hz1E11 library clone, periplasmic extract
B16: M3-LH-A1-2-2F4 (antibody, name in Kabat numbering, V domains shown)
VH: B1 VH with H99N
VL: B1 VL with A89Q, Y92V, S93R, T94I
notes: as for B15
B17: M3-L-A1-3-1F11 (hz1E11-154), periplasmic extract (antibody, V domains shown)
VH: B1 VH
VL: B1 VL with A89Q, L91T, Y92A, S93F, T94S
notes: Library clone expressed in bacteria with IPTG, tested as periplasmic extract; LCDR3 QQTAFSPWT
B18: M1-LH-A3-3-1A6 (antibody, name in Kabat numbering, V domains shown)
VH: B1 VH with H99N, L100Y
VL: B1 VL with A89Q, Y92V, S93R
notes: as for B15
B19: M3-L-A1-3-1A12 (hz1E11-133), periplasmic extract (antibody, V domains shown)
VH: B1 VH
VL: B1 VL with A89Q, L91N, Y92A, S93Y, T94A
notes: Library clone expressed in bacteria with IPTG, tested as periplasmic extract; LCDR3 QQNAYAPWT
B20: M3-LH-A3-3-2F1 (antibody, V domains shown)
VH: B1 VH
VL: B1 VL with A89Q, L91N, Y92A, S93Y, T94N
notes: as for B15
B21: M3-LH-A1-1-1H1 (antibody, name in Kabat numbering, V domains shown)
VH: B1 VH with H99N, L100Y
VL: B1 VL with A89Q, L91N, Y92F, S93I, T94A
notes: as for B15
B22: M3-LH-A3-3-2A5 (antibody, name in Kabat numbering, V domains shown)
VH: B1 VH with L100W
VL: B1 VL with A89Q, L91M, Y92F
notes: as for B15
B23: M3-L-A3-4-2E8 (antibody, V domains shown)
VH: B1 VH
VL: B1 VL with A89Q, L91I, Y92A, S93Y, T94V
notes: as for B15

biological target: T1, HER2-ECD (ELISA antigen of Examples 13 and 14) (human, UniProt P04626 23-652); assay: ELISA, periplasmic extract on HER2-ECD
T1 construct: extracellular domain

Row | Binder | binding result
1 | B1 | binds
2 | B2 | binds
3 | B3 | binds
4 | B4 | binds
5 | B5 | binds
6 | B6 | binds
7 | B7 | binds
8 | B8 | binds
9 | B9 | binds
10 | B10 | binds

biological target: T2, HER2-ECD-His protein (human, UniProt P04626 23-652); assay: SPR, IgG captured by goat anti-human IgG on CM5, HER2-ECD-His analyte
T2 construct: extracellular domain; not shown: His tag
Method: The goat anti-human IgG (Invitrogen, #H10500) at a concentration of 2000 RU was immobilized to a CM5 sensor chip via ECD/NHS method. Then, the antibodies were allowed to bind at a rate of 50 μL/min for 5 minutes, and allowed the buffer to flow thereonto for 5 minutes for stabilization purpose. […] After analyzing each of the concentrations, they were recycled using 10 mM Glycine (pH 1.5) and performed the subsequent assays. The affinities of the antibodies were analyzed via BIAevaluation software.

Row | Binder | Kd | fold decrease in Koff (kd) compared to hz1E11 | fold improvement of affinity compared to hz1E11 | koff | kon
11 | B11 | 1.5 nM | 8.4 fold | 15 fold | 9.9e-05 s⁻¹ | 64000 M⁻¹ s⁻¹
12 | B12 | 5.2 nM | – | – | 0.0002 s⁻¹ | 38000 M⁻¹ s⁻¹
13 | B13 | 1.1 nM | 8.4 fold | 20 fold | 9.9e-05 s⁻¹ | 86000 M⁻¹ s⁻¹

biological target: T2, HER2-ECD-His protein; assay: SPR (Biacore 3000), HER2-ECD-His amine-coupled to CM5, periplasmic extract as analyte
Method: In order to select clones with improved Koff among the selected clones, the clones were analyzed via Biacore 3000 (GE Healthcare). The HER2-ECD-His protein was immobilized to a CM5 sensor chip via an amine coupling method using ECD/NHS. […] The Koff value for each antibody was analyzed via BIAevaluation software.

Row | Binder | Degree of reduction (Fold) of koff against hz1E11
14 | B14 | 7.4 fold
15 | B15 | 2 fold
16 | B16 | 3.2 fold
17 | B17 | 9.7 fold
18 | B18 | 5.8 fold
19 | B19 | 30.4 fold
20 | B20 | 4.4 fold
21 | B21 | 0.7 fold
22 | B22 | 3.6 fold
23 | B23 | 5.9 fold
